Here are results for four molecules from patent publication US20220389120A1 (published 2022).

Test [1] addresses T1, recombinant human Ang2 (Biolegend) (human, UniProt O15123 19-496).
T1 chain: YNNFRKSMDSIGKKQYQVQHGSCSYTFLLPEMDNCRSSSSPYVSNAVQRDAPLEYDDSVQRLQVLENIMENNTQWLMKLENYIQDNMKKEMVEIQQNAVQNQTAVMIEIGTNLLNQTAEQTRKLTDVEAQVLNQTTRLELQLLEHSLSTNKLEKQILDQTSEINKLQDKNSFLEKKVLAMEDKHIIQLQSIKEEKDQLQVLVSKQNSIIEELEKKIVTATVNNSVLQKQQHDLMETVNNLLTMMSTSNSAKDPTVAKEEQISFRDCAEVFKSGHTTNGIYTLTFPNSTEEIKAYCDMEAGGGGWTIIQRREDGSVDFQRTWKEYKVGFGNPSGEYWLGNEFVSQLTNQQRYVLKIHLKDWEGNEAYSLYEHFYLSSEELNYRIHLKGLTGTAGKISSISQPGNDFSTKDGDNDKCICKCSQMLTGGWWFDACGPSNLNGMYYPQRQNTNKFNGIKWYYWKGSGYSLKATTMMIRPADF
The test can be described thus: Ang2-Tie2 blocking ELISA; Test 2.

The target of test [2] is T1, recombinant human Ang2 (Biolegend). Briefly: Ang2-Tie2 blocking ELISA; Test 3. For orientation: An ELISA detects its analyte on a solid surface through an enzyme-linked reagent.
The target of another test is PD-1 (UniProt Q15116 25-167). Briefly: PD-1 blocking assay.
The target of test [3] is T1, recombinant human Ang2 (Biolegend). The test can be described thus: ELISA.
For test [4] the target is unchanged. The test can be described thus: Ang2-Tie2 blocking ELISA; Test 1.

Chain of PD-1 (Q15116 25-167): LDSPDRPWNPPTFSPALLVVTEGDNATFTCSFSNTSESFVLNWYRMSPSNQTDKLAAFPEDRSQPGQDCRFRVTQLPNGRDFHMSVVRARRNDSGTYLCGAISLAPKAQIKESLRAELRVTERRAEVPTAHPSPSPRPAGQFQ

B1: ZA2-ld (protein)
chain: SDTGRPFVEMYSEIPEIIHMTEGRELVIPCRVTSPNITVTLKKFPLDTLIPDGKRIIWDSRKGFIISNATYKEIGLLTCEATVNGHLYKTNYLTHRQTNTIIDVVLSPSHGIELSVGEKLVLNCTARTELNVGIDFNWEYPSSKHQHKKLVNRDLKTQSGSEMKKFLSTLTIDGVTRSDQGLYTCAASSGLMTKKNSTFVRVHEKESKYGPPCPPCPAPEFLGGPSVFLFPPKPKDTLMISRTPEVTCVVVDVSQEDPEVQFNWYVDGVEVHNAKTKPREEQFNSTYRVVSVLTVLHQDWLNGKEYKCKVSNKGLPSSIEKTISKAKGQPREPQVYTLPPSQEEMGGAQTNFMPMDDLEQRLYEQFILQQGGGGSGGGGSGGGGSGGGGSTNFMPMDDLEQRLYEQFILQQGLETKNQVSLTCLVKGFYPSDIAVEWESNGQPENNYKTTPPVLDSDGSFFLYSRLTVDKSRWQEGNVFSCSVMHEALHNHYTQKSLSLSLGK
In the case of B1, the values for the IC50 in test [1] and in test [2] were 0.2 nM and 0.03 nM, respectively.

B2: GS01-A (other)
heavy: QVQLVQSGAEVKKPGASVKVSCKASGYTFTSYYIHWVRQAPGQGLEWMGWIFPGSGNSKYNENFKGRVTLTADTSTSTVYMELSSLRSEDTAVYYCASETYDYGDYWGQGTLVTVSSASTKGPSVFPLAPCSRSTSESTAALGCLVKDYFPEPVTVSWNSGALTSGVHTFPAVLQSSGLYSLSSVVTVPSSSLGTKTYTCNVDHKPSNTKVDKRVESKYGPPCPPCPAPEFLGGPSVFLFPPKPKDTLMISRTPEVTCVVVDVSQEDPEVQFNWYVDGVEVHNAKTKPREEQFNSTYRVVSVLTVLHQDWLNGKEYKCKVSNKGLPSSIEKTISKAKGQPREPQVYTLPPSQEEMGGAQTNFMPMDDLEQRLYEQFILQQGGGGSGGGGSGGGGSGGGGSTNFMPMDDLEQRLYEQFILQQGLETKNQVSLTCLVKGFYPSDIAVEWESNGQPENNYKTTPPVLDSDGSFFLYSRLTVDKSRWQEGNVFSCSVMHEALHNHYTQKSLSLSLGKGGGGSGGGGSGGGGSGGGGSEVQLVESGGGLVQPGGSLRLSCAASGFTISDYWIHWVRQAPGKGLEWVAGITPAGGYTYYADSVKGRFTISADTSKNTAYLQMNSLRAEDTAVYYCARFVFFLPYAMDYWGQGTLVTVSSGGGGSGGGGSGGGGSGGGGSDIQMTQSPSSLSASVGDRVTITCRASQDVSTAVAWYQQKPGKAPKLLIYSASFLYSGVPSRFSGSGSGTDFTLTISSLQPEDFATYYCQQGYGNPFTFGQGTKVEIK
light: DIQMTQSPSFLSASVGDRVTITCKASQNVGTNVAWYQQKPGKAPKALIYSASYRYSGVPSRFSGSGSGTEFTLTISSLQPEDFATYYCQQYYSYPYTFGQGTKLEIKRTVAAPSVFIFPPSDEQLKSGTASVVCLLNNFYPREAKVQWKVDNALQSGNSQESVTEQDSKDSTYSLSSTLTLSKADYEKHKVYACEVTHQGLSSPVTKSFNRGEC
As to B2, 0.272 nM corresponded to half-maximal inhibition with PD-1 (IC50). Besides, the EC50 (usually the concentration giving half of the maximal effect) in test [3] worked out at 0.211 µg/mL.

B3: ZA2-ls (protein)
chain: SDTGRPFVEMYSEIPEIIHMTEGRELVIPCRVTSPNITVTLKKFPLDTLIPDGKRIIWDSRKGFIISNATYKEIGLLTCEATVNGHLYKTNYLTHRQTNTIIDVVLSPSHGIELSVGEKLVLNCTARTELNVGIDFNWEYPSSKHQHKKLVNRDLKTQSGSEMKKFLSTLTIDGVTRSDQGLYTCAASSGLMTKKNSTFVRVHEKESKYGPPCPPCPAPEFLGGPSVFLFPPKPKDTLMISRTPEVTCVVVDVSQEDPEVQFNWYVDGVEVHNAKTKPREEQFNSTYRVVSVLTVLHQDWLNGKEYKCKVSNKGLPSSIEKTISKAKGQPREPQVYTLPPSQEEMGGAQTNFMPMDDLEQRLYEQFILQQGLETKNQVSLTCLVKGFYPSDIAVEWESNGQPENNYKTTPPVLDSDGSFFLYSRLTVDKSRWQEGNVFSCSVMHEALHNHYTQKSLSLSLGK
With B3, the IC50 (in general, the point on the concentration scale where inhibition reaches its midpoint) in test [2] is 0.1 nM.

B4: A2Z-ld (Fc fusion)
chain: ESKYGPPCPPCPAPEFLGGPSVFLFPPKPKDTLMISRTPEVTCVVVDVSQEDPEVQFNWYVDGVEVHNAKTKPREEQFNSTYRVVSVLTVLHQDWLNGKEYKCKVSNKGLPSSIEKTISKAKGQPREPQVYTLPPSQEEMGGAQTNFMPMDDLEQRLYEQFILQQGGGGSGGGGSGGGGSGGGGSTNFMPMDDLEQRLYEQFILQQGLETKNQVSLTCLVKGFYPSDIAVEWESNGQPENNYKTTPPVLDSDGSFFLYSRLTVDKSRWQEGNVFSCSVMHEALHNHYTQKSLSLSLGKGGGGGAQSDTGRPFVEMYSEIPEIIHMTEGRELVIPCRVTSPNITVTLKKFPLDTLIPDGKRIIWDSRKGFIISNATYKEIGLLTCEATVNGHLYKTNYLTHRQTNTIIDVVLSPSHGIELSVGEKLVLNCTARTELNVGIDFNWEYPSSKHQHKKLVNRDLKTQSGSEMKKFLSTLTIDGVTRSDQGLYTCAASSGLMTKKNSTFVRVHEKLE
Consider B4, for which the IC50 was 0.21 nM in test [1] and 0.19 nM in test [4].
